Data from article PMC13354579.

Experiments:
[1] = target: full-length MINDY3 (human) (UniProt Q9H8M7); assay: ITC; MicroCal PEAQ-ITC, 25 °C, 50 mM Tris-HCl pH 7.5, 150 mM NaCl, 250 µM TCEP; DUB in the syringe titrated into K48-linked polyUb in the cell, in other experiments the scarcest species in the cell; n = 2, mean ± SD
[2] = target: K48-linked triubiquitin (UniProt P0CG48); assay: as above

Chain of full-length MINDY3 (human) (Q9H8M7 whole entry): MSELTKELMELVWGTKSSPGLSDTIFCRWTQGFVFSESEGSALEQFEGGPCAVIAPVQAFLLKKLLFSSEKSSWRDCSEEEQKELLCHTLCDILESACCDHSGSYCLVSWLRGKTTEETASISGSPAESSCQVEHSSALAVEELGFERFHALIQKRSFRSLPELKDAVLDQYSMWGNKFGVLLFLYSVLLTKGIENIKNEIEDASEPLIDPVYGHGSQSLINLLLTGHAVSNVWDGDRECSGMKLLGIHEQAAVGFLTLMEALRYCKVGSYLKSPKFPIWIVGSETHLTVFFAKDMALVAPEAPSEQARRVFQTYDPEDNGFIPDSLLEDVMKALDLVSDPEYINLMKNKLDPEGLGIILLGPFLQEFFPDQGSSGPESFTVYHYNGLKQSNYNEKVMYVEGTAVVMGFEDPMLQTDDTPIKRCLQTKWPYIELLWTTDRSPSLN

Kd [1]	dH [1]	Kd [2]	Substance
12.2 µM	-1.16 kcal/mol		full-length RAD23A (from UniProt P54725 1-363) (natural protein)
		6 µM	MINDY3^EF-hand (from UniProt Q9H8M7 297-370) (domain or fragment)
